{"source": "paper PMC9008041", "key": {"[1]": {"target": "purified polymeric mucin MUC5B (human) (UniProt Q9HC84)", "assay": "rate-zonal centrifugation on sucrose gradients; purified polymeric mucin incubated 1 h at 37 °C with cyclic peptide (1 mM; CsA also 200 μM and 2 mM; MUC5B 100, 200 or 400 μg/mL), 10-35% (w/v) sucrose in PBS pH 7.4, 210,000 g, 15 °C, 1 h 15 min; mucin detected in fractions and pellet by slot blot; the peptide itself is not detected"}, "[2]": {"target": "purified polymeric mucin MUC5AC (human) (UniProt P98088)", "assay": "rate-zonal centrifugation on sucrose gradients; purified polymeric mucin incubated 1 h at 37 °C with cyclic peptide (1 mM; CsA also 200 μM and 2 mM; MUC5B 100, 200 or 400 μg/mL), 10-35% (w/v) sucrose in PBS pH 7.4, 210,000 g, 15 °C, 1 h 15 min; mucin detected in fractions and pellet by slot blot; the peptide itself is not detected"}, "[3]": {"target": "purified polymeric mucin MUC2 (human) (UniProt Q02817)", "assay": "rate-zonal centrifugation on sucrose gradients; purified polymeric mucin incubated 1 h at 37 °C with cyclic peptide (1 mM; CsA also 200 μM and 2 mM; MUC5B 100, 200 or 400 μg/mL), 10-35% (w/v) sucrose in PBS pH 7.4, 210,000 g, 15 °C, 1 h 15 min; mucin detected in fractions and pellet by slot blot; the peptide itself is not detected"}, "[4]": {"target": "purified polymeric mucin MUC5B (human) (UniProt Q9HC84)", "assay": "rate-zonal centrifugation on sucrose gradients; purified MUC5B with 200 μM CsA in PBS at pH 5.5, compared with pH 7.4; 10-35% (w/v) sucrose; MUC5B detected by slot blot"}, "[5]": {"target": "recombinant N-terminal protein of MUC5B (NT5B) (human) (UniProt Q9HC84)", "assay": "rate-zonal centrifugation on sucrose gradients; recombinant NT5B or CT5B with 200 μM CsA in PBS at pH 5.5, compared with pH 7.4; 5-20% (w/v) sucrose; detected by anti-His slot blot"}, "[6]": {"target": "recombinant N-terminal protein of MUC5B (NT5B) (human) (UniProt Q9HC84)", "assay": "rate-zonal centrifugation on sucrose gradients; recombinant MUC5B sub-domain (NT5B, CT5B 400 μg/mL) incubated 1 h at 37 °C with 1 mM CsA, 5-20% (w/v) sucrose in PBS pH 7.4, 210,000 g, 15 °C, 2 h 30 min; protein detected by anti-His slot blot (NT5B, CT5B) or SDS-PAGE (Cys7)"}, "[7]": {"target": "recombinant C-terminal protein of MUC5B (CT5B) (human)", "assay": "rate-zonal centrifugation on sucrose gradients; recombinant MUC5B sub-domain (NT5B, CT5B 400 μg/mL) incubated 1 h at 37 °C with 1 mM CsA, 5-20% (w/v) sucrose in PBS pH 7.4, 210,000 g, 15 °C, 2 h 30 min; protein detected by anti-His slot blot (NT5B, CT5B) or SDS-PAGE (Cys7)"}}}
{"substance": "cyclosporin A (peptide)", "values": [{"measurement": "percent of MUC5B in the pellet (1 mM CsA, MUC5B 100 μg/mL)", "setting": "[1]", "value": 18.6, "unit": "%"}, {"measurement": "percent of MUC5B in the pellet (1 mM CsA, MUC5B 200 μg/mL)", "setting": "[1]", "value": 13.3, "unit": "%"}, {"measurement": "percent of MUC5B in the pellet (2 mM CsA, MUC5B 200 μg/mL)", "setting": "[1]", "value": 11.8, "unit": "%"}, {"measurement": "percent of MUC5AC in the pellet (1 mM CsA)", "setting": "[2]", "value": 8.2, "unit": "%"}, {"measurement": "percent of MUC2 in the pellet (1 mM CsA)", "setting": "[3]", "value": 14.6, "unit": "%"}, {"measurement": "fold increase of MUC5B in the pellet at pH 5.5 against pH 7.4 (200 μM CsA)", "setting": "[4]", "value": 3.6, "unit": "fold"}, {"measurement": "fold increase of NT5B in the pellet at pH 5.5 against pH 7.4 (200 μM CsA)", "setting": "[5]", "value": 4.2, "unit": "fold"}, {"measurement": "percent of NT5B in the pellet (1 mM CsA)", "setting": "[6]", "value": 16.3, "unit": "%"}, {"measurement": "percent of CT5B in the pellet (1 mM CsA)", "setting": "[7]", "value": 29.1, "unit": "%"}]}
